In patent publication US20230340087A1 (published 2023) one finds Kd, koff and kon data, which are given here for two molecules.

The experiment deals with T1, Clostridium difficile toxin A (TcdA) (Clostridium difficile, UniProt P16154 1-2710).
T1 construct: also called TxA; rTcdA
Kind of experiment: binding kinetics, method not stated.

T1 sequence (P16154 whole entry): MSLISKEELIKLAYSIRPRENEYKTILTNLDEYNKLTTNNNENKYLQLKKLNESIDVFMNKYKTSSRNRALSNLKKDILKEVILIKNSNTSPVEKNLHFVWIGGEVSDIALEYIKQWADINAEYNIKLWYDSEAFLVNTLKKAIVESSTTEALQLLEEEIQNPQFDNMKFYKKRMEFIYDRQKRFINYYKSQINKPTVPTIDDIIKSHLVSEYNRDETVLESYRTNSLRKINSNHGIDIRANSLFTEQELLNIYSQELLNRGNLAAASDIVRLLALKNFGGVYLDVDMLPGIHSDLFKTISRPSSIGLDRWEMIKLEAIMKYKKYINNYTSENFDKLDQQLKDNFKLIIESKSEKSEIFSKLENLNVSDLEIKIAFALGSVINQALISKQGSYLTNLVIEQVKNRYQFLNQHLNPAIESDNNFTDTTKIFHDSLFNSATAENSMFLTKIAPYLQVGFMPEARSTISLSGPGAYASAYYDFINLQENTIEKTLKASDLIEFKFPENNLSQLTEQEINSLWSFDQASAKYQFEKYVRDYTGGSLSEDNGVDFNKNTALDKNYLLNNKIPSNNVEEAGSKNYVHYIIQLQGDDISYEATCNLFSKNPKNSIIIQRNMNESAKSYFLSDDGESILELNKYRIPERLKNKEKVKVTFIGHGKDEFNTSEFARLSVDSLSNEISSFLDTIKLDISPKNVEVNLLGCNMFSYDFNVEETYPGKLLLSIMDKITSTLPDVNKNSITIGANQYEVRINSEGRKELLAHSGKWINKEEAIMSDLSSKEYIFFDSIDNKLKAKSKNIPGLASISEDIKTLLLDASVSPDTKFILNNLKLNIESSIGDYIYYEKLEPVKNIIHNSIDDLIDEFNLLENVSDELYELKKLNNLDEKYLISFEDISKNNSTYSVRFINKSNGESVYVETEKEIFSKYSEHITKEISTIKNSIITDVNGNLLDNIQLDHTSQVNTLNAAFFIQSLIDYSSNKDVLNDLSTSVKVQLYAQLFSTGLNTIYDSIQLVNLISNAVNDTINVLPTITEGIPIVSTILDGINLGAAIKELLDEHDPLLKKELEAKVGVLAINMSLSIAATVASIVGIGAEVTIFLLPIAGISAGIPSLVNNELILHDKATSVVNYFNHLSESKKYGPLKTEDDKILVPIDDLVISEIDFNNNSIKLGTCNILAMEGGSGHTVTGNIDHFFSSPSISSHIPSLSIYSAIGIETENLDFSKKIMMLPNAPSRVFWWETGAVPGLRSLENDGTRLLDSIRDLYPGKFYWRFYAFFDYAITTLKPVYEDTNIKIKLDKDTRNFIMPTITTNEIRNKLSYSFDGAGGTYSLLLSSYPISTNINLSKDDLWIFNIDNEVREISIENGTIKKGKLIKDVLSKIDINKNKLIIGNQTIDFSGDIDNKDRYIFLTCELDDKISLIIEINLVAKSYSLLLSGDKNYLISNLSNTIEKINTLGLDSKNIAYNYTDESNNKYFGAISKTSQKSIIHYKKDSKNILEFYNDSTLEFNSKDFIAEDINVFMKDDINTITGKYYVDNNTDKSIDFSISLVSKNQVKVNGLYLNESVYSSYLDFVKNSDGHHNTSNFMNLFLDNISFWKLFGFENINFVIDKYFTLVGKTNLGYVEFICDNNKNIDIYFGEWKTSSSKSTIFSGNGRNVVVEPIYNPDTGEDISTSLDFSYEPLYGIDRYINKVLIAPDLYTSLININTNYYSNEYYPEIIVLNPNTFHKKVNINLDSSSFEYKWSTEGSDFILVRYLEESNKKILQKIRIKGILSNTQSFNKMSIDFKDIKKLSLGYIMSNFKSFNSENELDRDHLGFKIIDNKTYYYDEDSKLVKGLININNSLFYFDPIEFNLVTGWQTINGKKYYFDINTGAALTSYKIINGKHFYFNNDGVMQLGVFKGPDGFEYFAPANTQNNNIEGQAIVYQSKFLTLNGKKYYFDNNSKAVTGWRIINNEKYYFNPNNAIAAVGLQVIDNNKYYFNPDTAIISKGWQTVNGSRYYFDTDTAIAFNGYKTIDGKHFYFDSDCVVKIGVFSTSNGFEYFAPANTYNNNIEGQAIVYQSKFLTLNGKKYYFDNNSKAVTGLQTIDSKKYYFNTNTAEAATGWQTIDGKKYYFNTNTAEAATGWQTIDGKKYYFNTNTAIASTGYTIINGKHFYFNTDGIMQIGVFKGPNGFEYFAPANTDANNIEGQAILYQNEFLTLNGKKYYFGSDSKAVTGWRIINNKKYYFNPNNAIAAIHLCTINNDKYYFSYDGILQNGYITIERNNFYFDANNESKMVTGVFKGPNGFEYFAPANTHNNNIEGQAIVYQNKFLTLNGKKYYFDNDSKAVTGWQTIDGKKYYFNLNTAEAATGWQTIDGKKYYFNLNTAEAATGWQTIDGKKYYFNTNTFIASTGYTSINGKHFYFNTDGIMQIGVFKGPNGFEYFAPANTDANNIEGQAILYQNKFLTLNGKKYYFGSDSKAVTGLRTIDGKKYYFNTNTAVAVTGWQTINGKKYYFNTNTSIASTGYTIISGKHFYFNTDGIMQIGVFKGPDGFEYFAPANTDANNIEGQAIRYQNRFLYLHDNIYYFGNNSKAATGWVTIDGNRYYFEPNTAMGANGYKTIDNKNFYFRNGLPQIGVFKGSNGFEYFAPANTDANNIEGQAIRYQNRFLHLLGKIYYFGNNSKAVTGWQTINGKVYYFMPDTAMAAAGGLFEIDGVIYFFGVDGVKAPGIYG

B1: ABAB binding agent (AH3/5D/AA6/E3), tetra-specific, tetrameric VHH binding agent (designed binder)
chain: QVQLVETGGGLVQPGGSLRLSCAASGFTLDYSSIGWFRQAPGKEREGVSCISSSGDSTKYADSVKGRFTTSRDNAKNTVYLQMNSLKPDDTAVYYCAAFRATMCGVFPLSPYGKDDWGKGTLVTVSSGGGGSGGGGSGGGGSQVQLVESGGGLVQPGGSLRLSCEASGFTLDYYGIGWFRQPPGKEREAVSYISASARTILYADSVKGRFTISRDNAKNAVYLQMNSLKREDTAVYYCARRRFSASSVNRWLADDYDVWGRGTQVAVSSGGGSGGGSGGGSGGGSQLQLVETGGGLVQPGGSLRLSCAASGFTFSDYVMTWVRQAPGKGPEWIATINTDGSTMRDDSTKGRFTISRDNAKNTLYLQMTSLKPEDTALYYCARGRVISASAIRGAVRGPGTQVTVSSGGGGSGGGGSGGGGSQVQLVESGGGLVQTGGSLRLSCASSGSIAGFETVTWSRQAPGKSLQWVASMTKTNNEIYSDSVKGRFIISRDNAKNTVYLQMNSLKPEDTGVYFCKGPELRGQGIQVTVSS
notes: also called r-ABAB; recombinant ABAB
For orientation: Kd means a measure of binding affinity in units of concentration. A low value points to higher affinity. A word on the koff: it is the first-order rate constant of dissociation. What is called kon is a measure of how fast the partners come together. High values mean faster complex formation, low ones slower complex formation. For the molecule B1, the equilibrium dissociation constant (Kd) is 0.002 nM, the off-rate (koff) was found to be 1.21e-06 s⁻¹ and the kon was determined as 696000 M⁻¹ s⁻¹.

B2: AA6 VHH peptide monomer (VHH)
VHH: QLQLVETGGGLVQPGGSLRLSCAASGFTFSDYVMTWVRQAPGKGPEWIATINTDGSTMRDDSTKGRFTISRDNAKNTLYLQMTSLKPEDTALYYCARGRVISASAIRGAVRGPGTQVTVSS
Molecule B2 returned a Kd of 19.7 nM, an off-rate constant (koff) of 0.000692 s⁻¹ and a kon of 35200 M⁻¹ s⁻¹.
